Here are results for one molecule from publication PMC4964982 (2016).

Common to all, as to test: TR-FRET competition with SRC3 fragment
Background: TR-FRET usually uses a lanthanide donor and a delayed reading to cut background.

Test [1] has as its target T1, SRC2-SP4 687-697 (Homo sapiens, UniProt Q15596, staple 3-7).
T1 chain: HK[S5]LHR[S5]LQDS

The target of test [2] is T2, PFE-SP2 687-697 (Homo sapiens, UniProt Q15596, staple 3-7; also: R to Q substitution, place not given here).
T2 chain: HK[S5]LHR[S5]LQDS

Test [3] deals with T3, SRC2-WT 687-697 (Homo sapiens, UniProt Q15596).
T3 chain: HKILHRLLQDS

Bridge positions count the residues as written; N and C are the ends. Square brackets hold non-standard residues; d marks the D form. Ends that are not written are not given here. S5 = C=CCCC[C@](C)(N)C(=O)O

B1: ERα LBD (protein)
chain: NSLALSLTADQMVSALLDAEPPILYSEYDPTRPFSEASMMGLLTNLADRELVHMINWAKRVPGFVDLTLHDQVHLLECAWLEILMIGLVWRSMEHPGKLLFAPNLLLDRNQGKCVEGMVEIFDMLLATSSRFRMMNLQGEEFVCLKSIILLNSGVYTFLSSTLKSLEEKDHIHRVLDKITDTLIHLMAKAGLTLQQQHQRLAQLLLILSHIRHMSNKGMEHLYSMKCKNVVPLYDLLLEMLDAHRLHAPTS
In general, IC50 refers to the concentration that gives 50% inhibition. A high value points to lower potency. Regarding B1, the IC50 in test [1] worked out at 390 nM; in test [2], 760 nM; in test [3], 1100 nM.
